Earlier results as cited in article PMC9254699 (Biomaterials science, 2021).

B1: γ-interferon: molecule with activity against TGF-β1, explored preclinically as anti-fibrotic (protein, UniProt P01579 24-161, looked up)
Interferon gamma: QDPYVKEAENLKKYFNAGHSDVADNGTLFLGILKNWKEESDRKIMQSQIVSFYFKLFKNFKDDQSIQKSVETIKEDMNVKFFNSNKKKRDDFEKLTNYSVTDLNVQRKAIHELIQVMAELSPAAKTGKRKRSQMLFRG
B2: decorin: molecule with activity against TGF-β1, explored preclinically as anti-fibrotic (protein, UniProt P07585 31-359, looked up)
Decorin: DEASGIGPEVPDDRDFEPSLGPVCPFRCQCHLRVVQCSDLGLDKVPKDLPPDTTLLDLQNNKITEIKDGDFKNLKNLHALILVNNKISKVSPGAFTPLVKLERLYLSKNQLKELPEKMPKTLQELRAHENEITKVRKVTFNGLNQMIVIELGTNPLKSSGIENGAFQGMKKLSYIRIADTNITSIPQGLPPSLTELHLDGNKISRVDAASLKGLNNLAKLGLSFNSISAVDNGSLANTPHLRELHLDNNKLTRVPGGLAEHKYIQVVYLHNNNISVVGSSDFCPPGHNTKKASYSGVSLFSNPVQYWEIQPSTFRCVYVRSAIQLGNYK

Columns and labels:
[1] = target: T1, TGF-β1 (Homo sapiens, UniProt P01137)
T1 sequence (P01137 279-390 limits assumed, species assumed): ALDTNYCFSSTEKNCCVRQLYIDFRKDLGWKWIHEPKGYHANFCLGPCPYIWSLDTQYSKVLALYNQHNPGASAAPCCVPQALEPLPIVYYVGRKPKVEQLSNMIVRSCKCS

[2] = target: T1, TGF-β1; remark: listed apart in the source

Molecule | activity against TGF-β1, preclinical anti-fibrotic [1] | direct binding to TGF-β1 or its receptors [2]
B1 | activity against TGF-β1 | do not directly bind TGF-β1 or its receptors
B2 | activity against TGF-β1 | do not directly bind TGF-β1 or its receptors
